The text below walks through data of paper PMC8062686, “Structural variation at the maize WUSCHEL1 locus alters stem cell organization in inflorescences”.

The target in this data set is T1, GST-ZmRR8 DNA-binding domain (Zea mays, UniProt Q9AV93 191-262).
T1 sequence: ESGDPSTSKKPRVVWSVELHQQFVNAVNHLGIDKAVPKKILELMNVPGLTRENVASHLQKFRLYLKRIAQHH
Description: EMSA; 1x LightShift Binding Buffer, 50 ng/uL poly(dI/dC), 2.5% glycerol, room temperature 20 min, 6% DNA retardation gel; pH and salt not given. As to conditions: protein: recombinant; tags: GST (pET-60-DEST).

B1: m119 bp (three AGATAT to TTTTTT) (dsDNA)
DNA 1: TAATTTTTTCGTCGTATCCCATGATCCTTCGTGTGTCAACTTCACTTGTCTCTCTCCAAATTTTTTCGTCGTATCCCATGATCCTTCCTCCCCTCCAAATTTTTTCGTCGTATCACAGTA
DNA 2: TACTGTGATACGACGAAAAAATTTGGAGGGGAGGAAGGATCATGGGATACGACGAAAAAATTTGGAGAGAGACAAGTGAAGTTGACACACGAAGGATCATGGGATACGACGAAAAAATTA
B1: the binding result is given as “no binding”.
